# Positions count from the first letter of the chain named.
# B1: mLDHD (Mus musculus) (protein)
# chain: GSQGGLSQDFVEALKAVVGSPHVSTASAVREQHGHDESMHRCQPPDAVVWPQNVDQVSRVASLCYNQGVPIIPFGTGTGVEGGVCAVQGGVCINLTHMDQITELNTEDFSVVVEPGVTRKALNTHLRDSGLWFPVDPGADASLCGMAATGASGTNAVRYGTMRDNVINLEVVLPDGRLLHTAGRGRHYRKSAAGYNLTGLFVGSEGTLGIITSTTLRLHPAPEATVAATCAFPSVQAAVDSTVQILQAAVPVARIEFLDDVMMDACNRHSKLNCPVAPTLFLEFHGSQQTLAEQLQRTEAITQDNGGSHFSWAKEAEKRNELWAARHNAWYAALALSPGSKAYSTDVCVPISRLPEILVETKEEIKASKLTGAIVGHVGDGNFHCILLVDPDDAEEQRRVKAFAENLGRRALALGGTCTGEHGIGLGKRQLLQEEVGPVGVETMRQLKNTLDPRGLMNPGKVL
# Tests used:
# [1] = biological target: T1, mLDHD (Mus musculus, UniProt Q7TNG8, H405A); experiment: X-ray crystal structure (soak); assay type: binding; settings: FAD-bound crystals; no Mn2+ at active site; DL mixture soaked
# T1 construct: gene Ldhd
# T1 sequence (Q7TNG8 22-484 H405A): B1 chain with H384A
# [2] = biological target: T2, mLDHD (Mus musculus, UniProt Q7TNG8); experiment: X-ray crystal structure, […] Å; assay type: binding; settings: non-covalently bound, co-purified from expression host
# T2 construct: gene Ldhd
# T2 sequence (Q7TNG8 22-484): B1 chain
# [3] = substrate: CC[C@@H](O)C(=O)O; experiment: purified protein; assay type: biochemical, Mus musculus; settings: 50 mM Tris-HCl pH 7.4, 50 μM MnCl2, 200 μM PMS, 100 μM DCIP, 37 °C
# [4] = substrate: CCC(C)C(O)C(=O)O; experiment: purified protein; assay type: biochemical, Mus musculus; settings: 50 mM Tris-HCl pH 7.4, 50 μM MnCl2, 200 μM PMS, 100 μM DCIP, 37 °C
# [5] = substrate: CC(C)[C@@H](O)C(=O)O; experiment: purified protein; assay type: biochemical, Mus musculus; settings: 50 mM Tris-HCl pH 7.4, 50 μM MnCl2, 200 μM PMS, 100 μM DCIP, 37 °C
# [6] = substrate: CCCCC(O)C(=O)O; experiment: purified protein; assay type: biochemical, Mus musculus; settings: 50 mM Tris-HCl pH 7.4, 50 μM MnCl2, 200 μM PMS, 100 μM DCIP, 37 °C
# [7] = substrate: O=C(O)[C@H](O)Cc1ccccc1; experiment: purified protein; assay type: biochemical, Mus musculus; settings: 50 mM Tris-HCl pH 7.4, 50 μM MnCl2, 200 μM PMS, 100 μM DCIP, 37 °C
# [8] = substrate: CCCC(O)C(=O)O; experiment: purified protein; assay type: biochemical, Mus musculus; settings: 50 mM Tris-HCl pH 7.4, 50 μM MnCl2, 200 μM PMS, 100 μM DCIP, 37 °C, racemate, KM calculated on D-isomer concentration
# [9] = substrate: CC(C)CC(O)C(=O)O; experiment: purified protein; assay type: biochemical, Mus musculus; settings: 50 mM Tris-HCl pH 7.4, 50 μM MnCl2, 200 μM PMS, 100 μM DCIP, 37 °C, racemate, KM calculated on D-isomer concentration
# [10] = substrate: CCCCCCC(O)C(=O)O; experiment: purified protein; assay type: biochemical, Mus musculus; settings: 50 mM Tris-HCl pH 7.4, 50 μM MnCl2, 200 μM PMS, 100 μM DCIP, 37 °C
# [11] = substrate: C[C@@H](O)C(=O)O; experiment: purified protein; settings: 50 mM Tris-HCl pH 7.4, 50 μM MnCl2, 200 μM PMS, 100 μM DCIP, 37 °C
molecule,measurement,setting,value
"CCC[C@@H](O)C(=O)O (mixture of isomers) [D-2-HV, D-2-hydroxyvalerate]",X-ray crystal structure (soak),[1],mLDHDH405A in complex with FAD and D-2-hydroxyvalerate (PDB 8JDN)
Cc1cc2nc3c(=O)[nH]c(=O)nc-3n(C[C@H](O)[C@H](O)[C@H](O)COP(=O)(O)OP(=O)(O)OC[C@H]3O[C@@H](n4cnc5c(N)ncnc54)[C@H](O)[C@@H]3O)c2cc1C [FAD],"X-ray crystal structure, 1.70 Å",[2],mLDHD in complex with FAD (PDB 8JDC)
"CCCCCC[C@@H](O)C(=O)O (mixture of isomers) [D-2-HO, D-2-hydroxyoctanoate]",X-ray crystal structure (soak),[1],mLDHDH405A in complex with FAD and D-2-hydroxyoctanoate (PDB 8JDB)
"CC(C)C[C@@H](O)C(=O)O (mixture of isomers) [D-2-HIC, D-2-hydroxyisocaproate]",X-ray crystal structure (soak),[1],mLDHDH405A in complex with FAD and D-2-hydroxyisocaproate (PDB 8JDQ)
B1,Km,[3],62.9 ± 2.8 µM
same,Vmax,[3],1.6 µmol/min/mg
same,kcat,[3],1.33 ± 0.015 s⁻¹
same,kcat/Km,[3],21200 M⁻¹ s⁻¹
same,Km,[4],16.5 ± 0.1 µM
same,Vmax,[4],1.01 µmol/min/mg
same,kcat,[4],0.842 ± 0.01 s⁻¹
same,kcat/Km,[4],51000 M⁻¹ s⁻¹
same,Km,[5],13.9 ± 1.2 µM
same,Vmax,[5],1.11 µmol/min/mg
same,kcat,[5],0.925 ± 0.015 s⁻¹
same,kcat/Km,[5],66500 M⁻¹ s⁻¹
same,Km,[6],34.9 ± 1.6 µM
same,Vmax,[6],1.48 µmol/min/mg
same,kcat,[6],1.233 ± 0.0117 s⁻¹
same,kcat/Km,[6],35300 M⁻¹ s⁻¹
same,Km,[7],337.0 ± 44.0 µM
same,Vmax,[7],0.788 µmol/min/mg
same,kcat,[7],0.657 ± 0.03 s⁻¹
same,kcat/Km,[7],1950 M⁻¹ s⁻¹
same,Km,[8],31.4 ± 2.7 µM
same,Vmax,[8],1.12 µmol/min/mg
same,kcat,[8],0.933 ± 0.0183 s⁻¹
same,kcat/Km,[8],29700 M⁻¹ s⁻¹
same,Km,[9],16.4 ± 0.7 µM
same,Vmax,[9],0.902 µmol/min/mg
same,kcat,[9],0.752 ± 0.0133 s⁻¹
same,kcat/Km,[9],45800 M⁻¹ s⁻¹
same,Km,[10],104.0 ± 9.0 µM
same,Vmax,[10],0.409 µmol/min/mg
same,kcat,[10],0.342 ± 0.00833 s⁻¹
same,kcat/Km,[10],3280 M⁻¹ s⁻¹
same,Km,[11],122.0 ± 4.5 µM
same,Vmax,[11],1.22 µmol/min/mg
same,kcat,[11],1.02 s⁻¹
same,kcat/Km,[11],8330 M⁻¹ s⁻¹
